{"source": "ChEMBL document CHEMBL2073850", "about": "“Human organic anion transporters and human organic cation transporters mediate renal transport of prostaglandins” (J Pharmacol Exp Ther, 2002)", "key": {"[1]": {"substrate": "CCCCC[C@H](O)/C=C/[C@H]1[C@H](O)CC(=O)[C@@H]1C/C=C\\CCCC(=O)O", "assay": "(§1) TP_TRANSPORTER: uptake in OCT1-expressing S2 cells", "type": "functional, cell-based"}, "[2]": {"substrate": "CCCCC[C@H](O)/C=C/[C@@H]1[C@@H](C/C=C\\CCCC(=O)O)[C@@H](O)C[C@H]1O", "assay": "as §1", "type": "functional, cell-based"}, "[3]": {"substrate": "CCCCC[C@H](O)/C=C/[C@H]1[C@H](O)CC(=O)[C@@H]1C/C=C\\CCCC(=O)O", "assay": "(§2) TP_TRANSPORTER: uptake in OAT3-expressing S2 cells", "type": "functional, cell-based"}, "[4]": {"substrate": "CCCCC[C@H](O)/C=C/[C@@H]1[C@@H](C/C=C\\CCCC(=O)O)[C@@H](O)C[C@H]1O", "assay": "as §2", "type": "functional, cell-based"}, "[5]": {"substrate": "CCCCC[C@H](O)/C=C/[C@H]1[C@H](O)CC(=O)[C@@H]1C/C=C\\CCCC(=O)O", "assay": "(§3) TP_TRANSPORTER: uptake in OCT2-expressing S2 cells", "type": "functional, cell-based"}, "[6]": {"substrate": "CCCCC[C@H](O)/C=C/[C@@H]1[C@@H](C/C=C\\CCCC(=O)O)[C@@H](O)C[C@H]1O", "assay": "as §3", "type": "functional, cell-based"}, "[7]": {"substrate": "CCCCC[C@H](O)/C=C/[C@H]1[C@H](O)CC(=O)[C@@H]1C/C=C\\CCCC(=O)O", "assay": "(§4) TP_TRANSPORTER: uptake in OAT4-expressing S2 cells", "type": "functional, cell-based"}, "[8]": {"substrate": "CCCCC[C@H](O)/C=C/[C@@H]1[C@@H](C/C=C\\CCCC(=O)O)[C@@H](O)C[C@H]1O", "assay": "as §4", "type": "functional, cell-based"}, "[9]": {"substrate": "CCCCC[C@H](O)/C=C/[C@H]1[C@H](O)CC(=O)[C@@H]1C/C=C\\CCCC(=O)O", "assay": "(§5) TP_TRANSPORTER: uptake in OAT2-expressing S2 cells", "type": "functional, cell-based"}, "[10]": {"substrate": "CCCCC[C@H](O)/C=C/[C@@H]1[C@@H](C/C=C\\CCCC(=O)O)[C@@H](O)C[C@H]1O", "assay": "as §5", "type": "functional, cell-based"}, "[11]": {"substrate": "CCCCC[C@H](O)/C=C/[C@H]1[C@H](O)CC(=O)[C@@H]1C/C=C\\CCCC(=O)O", "assay": "cells, lysate or membranes named"}, "[12]": {"substrate": "CCCCC[C@H](O)/C=C/[C@@H]1[C@@H](C/C=C\\CCCC(=O)O)[C@@H](O)C[C@H]1O", "assay": "TP_TRANSPORTER: uptake in OAT1-expressing S2 cells", "type": "functional, cell-based"}}, "data": [{"protein": "Solute carrier family 22 member 1 (Homo sapiens) (protein) MPTVDDILEQVGESGWFQKQAFLILCLLSAAFAPICVGIVFLGFTPDHHCQSPGVAELSQRCGWSPAEELNYTVPGLGPAGEAFLGQCRRYEVDWNQSALSCVDPLASLATNRSHLPLGPCQDGWVYDTPGSSIVTEFNLVCADSWKLDLFQSCLNAGFLFGSLGVGYFADRFGRKLCLLGTVLVNAVSGVLMAFSPNYMSMLLFRLLQGLVSKGNWMAGYTLITEFVGSGSRRTVAIMYQMAFTVGLVALTGLAYALPHWRWLQLAVSLPTFLFLLYYWCVPESPRWLLSQKRNTEAIKIMDHIAQKNGKLPPADLKMLSLEEDVTEKLSPSFADLFRTPRLRKRTFILMYLWFTDSVLYQGLILHMGATSGNLYLDFLYSALVEIPGAFIALITIDRVGRIYPMAMSNLLAGAACLVMIFISPDLHWLNIIIMCVGRMGITIAIQMICLVNAELYPTFVRNLGVMVCSSLCDIGGIITPFIVFRLREVWQALPLILFAVLGLLAAGVTLLLPETKGVALPETMKDAENLGRKAKPKENTIYLKVQTSEPSGT", "values": [{"measurement": "Km", "setting": "[1]", "result": 0.657, "unit": "µM"}, {"measurement": "Km", "setting": "[2]", "result": 0.477, "unit": "µM"}]}, {"protein": "Organic anion transporter 3 (Homo sapiens) (protein) MTFSEILDRVGSMGHFQFLHVAILGLPILNMANHNLLQIFTAATPVHHCRPPHNASTGPWVLPMGPNGKPERCLRFVHPPNASLPNDTQRAMEPCLDGWVYNSTKDSIVTEWDLVCNSNKLKEMAQSIFMAGILIGGLVLGDLSDRFGRRPILTCSYLLLAASGSGAAFSPTFPIYMVFRFLCGFGISGITLSTVILNVEWVPTRMRAIMSTALGYCYTFGQFILPGLAYAIPQWRWLQLTVSIPFFVFFLSSWWTPESIRWLVLSGKSSKALKILRRVAVFNGKKEEGERLSLEELKLNLQKEISLAKAKYTASDLFRIPMLRRMTFCLSLAWFATGFAYYSLAMGVEEFGVNLYILQIIFGGVDVPAKFITILSLSYLGRHTTQAAALLLAGGAILALTFVPLDLQTVRTVLAVFGKGCLSSSFSCLFLYTSELYPTVIRQTGMGVSNLWTRVGSMVSPLVKITGEVQPFIPNIIYGITALLGGSAALFLPETLNQPLPETIEDLENWSLRAKKPKQEPEVEKASQRIPLQPHGPGLGSS", "values": [{"measurement": "Km", "setting": "[3]", "result": 0.345, "unit": "µM"}, {"measurement": "Km", "setting": "[4]", "result": 1.09, "unit": "µM"}]}, {"protein": "Solute carrier family 22 member 2 (Homo sapiens) (protein) MPTTVDDVLEHGGEFHFFQKQMFFLLALLSATFAPIYVGIVFLGFTPDHRCRSPGVAELSLRCGWSPAEELNYTVPGPGPAGEASPRQCRRYEVDWNQSTFDCVDPLASLDTNRSRLPLGPCRDGWVYETPGSSIVTEFNLVCANSWMLDLFQSSVNVGFFIGSMSIGYIADRFGRKLCLLTTVLINAAAGVLMAISPTYTWMLIFRLIQGLVSKAGWLIGYILITEFVGRRYRRTVGIFYQVAYTVGLLVLAGVAYALPHWRWLQFTVSLPNFFFLLYYWCIPESPRWLISQNKNAEAMRIIKHIAKKNGKSLPASLQRLRLEEETGKKLNPSFLDLVRTPQIRKHTMILMYNWFTSSVLYQGLIMHMGLAGDNIYLDFFYSALVEFPAAFMIILTIDRIGRRYPWAASNMVAGAACLASVFIPGDLQWLKIIISCLGRMGITMAYEIVCLVNAELYPTFIRNLGVHICSSMCDIGGIITPFLVYRLTNIWLELPLMVFGVLGLVAGGLVLLLPETKGKALPETIEEAENMQRPRKNKEKMIYLQVQKLDIPLN", "values": [{"measurement": "Km", "setting": "[5]", "result": 0.0289, "unit": "µM"}, {"measurement": "Km", "setting": "[6]", "result": 0.334, "unit": "µM"}]}, {"protein": "Solute carrier family 22 member 11 (Homo sapiens) (protein) MAFSKLLEQAGGVGLFQTLQVLTFILPCLMIPSQMLLENFSAAIPGHRCWTHMLDNGSAVSTNMTPKALLTISIPPGPNQGPHQCRRFRQPQWQLLDPNATATSWSEADTEPCVDGWVYDRSVFTSTIVAKWDLVCSSQGLKPLSQSIFMSGILVGSFIWGLLSYRFGRKPMLSWCCLQLAVAGTSTIFAPTFVIYCGLRFVAAFGMAGIFLSSLTLMVEWTTTSRRAVTMTVVGCAFSAGQAALGGLAFALRDWRTLQLAASVPFFAISLISWWLPESARWLIIKGKPDQALQELRKVARINGHKEAKNLTIEVLMSSVKEEVASAKEPRSVLDLFCVPVLRWRSCAMLVVNFSLLISYYGLVFDLQSLGRDIFLLQALFGAVDFLGRATTALLLSFLGRRTIQAGSQAMAGLAILANMLVPQDLQTLRVVFAVLGKGCFGISLTCLTIYKAELFPTPVRMTADGILHTVGRLGAMMGPLILMSRQALPLLPPLLYGVISIASSLVVLFFLPETQGLPLPDTIQDLESQKSTAAQGNRQEAVTVESTSL", "values": [{"measurement": "Km", "setting": "[7]", "result": 0.154, "unit": "µM"}, {"measurement": "Km", "setting": "[8]", "result": 0.692, "unit": "µM"}]}, {"protein": "Solute carrier family 22 member 7 (Homo sapiens) (protein) MGFEELLEQVGGFGPFQLRNVALLALPRVLLPLHFLLPIFLAAVPAHRCALPGAPANFSHQDVWLEAHLPREPDGTLSSCLRFAYPQALPNTTLGEERQSRGELEDEPATVPCSQGWEYDHSEFSSTIATESQWDLVCEQKGLNRAASTFFFAGVLVGAVAFGYLSDRFGRRRLLLVAYVSTLVLGLASAASVSYVMFAITRTLTGSALAGFTIIVMPLELEWLDVEHRTVAGVLSSTFWTGGVMLLALVGYLIRDWRWLLLAVTLPCAPGILSLWWVPESARWLLTQGHVKEAHRYLLHCARLNGRPVCEDSFSQEAVSKVAAGERVVRRPSYLDLFRTPRLRHISLCCVVVWFGVNFSYYGLSLDVSGLGLNVYQTQLLFGAVELPSKLLVYLSVRYAGRRLTQAGTLLGTALAFGTRLLVSSDMKSWSTVLAVMGKAFSEAAFTTAYLFTSELYPTVLRQTGMGLTALVGRLGGSLAPLAALLDGVWLSLPKLTYGGIALLAAGTALLLPETRQAQLPETIQDVERKSAPTSLQEEEMPMKQVQN", "values": [{"measurement": "Km", "setting": "[9]", "result": 0.713, "unit": "µM"}, {"measurement": "Km", "setting": "[10]", "result": 0.425, "unit": "µM"}]}, {"protein": "Solute carrier family 22 member 6 (Homo sapiens) (protein) MAFNDLLQQVGGVGRFQQIQVTLVVLPLLLMASHNTLQNFTAAIPTHHCRPPADANLSKNGGLEVWLPRDRQGQPESCLRFTSPQWGLPFLNGTEANGTGATEPCTDGWIYDNSTFPSTIVTEWDLVCSHRALRQLAQSLYMVGVLLGAMVFGYLADRLGRRKVLILNYLQTAVSGTCAAFAPNFPIYCAFRLLSGMALAGISLNCMTLNVEWMPIHTRACVGTLIGYVYSLGQFLLAGVAYAVPHWRHLQLLVSAPFFAFFIYSWFFIESARWHSSSGRLDLTLRALQRVARINGKREEGAKLSMEVLRASLQKELTMGKGQASAMELLRCPTLRHLFLCLSMLWFATSFAYYGLVMDLQGFGVSIYLIQVIFGAVDLPAKLVGFLVINSLGRRPAQMAALLLAGICILLNGVIPQDQSIVRTSLAVLGKGCLAASFNCIFLYTGELYPTMIRQTGMGMGSTMARVGSIVSPLVSMTAELYPSMPLFIYGAVPVAASAVTVLLPETLGQPLPDTVQDLESRWAPTQKEAGIYPRKGKQTRQQQEHQKYMVPLQASAQEKNGL", "values": [{"measurement": "Km", "setting": "[11]", "result": 0.97, "unit": "µM"}, {"measurement": "Km", "setting": "[12]", "result": 0.575, "unit": "µM"}]}]}
